The target of experiment [1] is Full length IDOL (1–445) (UniProt Q8WY64). Briefly: MST; increasing concentrations of unlabelled IDOL titrated into a 45 nM solution of dye-labelled IDOL; homodimer to monomers.
Experiment [2] shares this target. Briefly: MST; as a6 but in the presence of RINGpep2 (100 μM); apparent; homodimer to monomers.

Consider “Full length IDOL (1–445) (from UniProt Q8WY64 1-445) (enzyme)”, for which the Kd (as a rule, the constant that tells how readily two partners part at equilibrium) with Full length IDOL (1–445) [1] stood at 2.9 µM. The apparent KD in the presence of RINGPep2 (100 μM) in the experiment with Full length IDOL (1–445) [2] worked out at 11.1 µM.

The values above are taken from article PMC6050537, “Inhibition of low-density lipoprotein receptor degradation with a cyclic peptide that disrupts the homodimerization of IDOL E3 ubiquitin ligase” (Chemical Science, 2018).
